Measurements: publication PMC6912793

Target: recombinant human integrin α5β1 (human) (UniProt P08648)
UniProt P08648, sequence (P08648 42-1049, chain 1 of 2): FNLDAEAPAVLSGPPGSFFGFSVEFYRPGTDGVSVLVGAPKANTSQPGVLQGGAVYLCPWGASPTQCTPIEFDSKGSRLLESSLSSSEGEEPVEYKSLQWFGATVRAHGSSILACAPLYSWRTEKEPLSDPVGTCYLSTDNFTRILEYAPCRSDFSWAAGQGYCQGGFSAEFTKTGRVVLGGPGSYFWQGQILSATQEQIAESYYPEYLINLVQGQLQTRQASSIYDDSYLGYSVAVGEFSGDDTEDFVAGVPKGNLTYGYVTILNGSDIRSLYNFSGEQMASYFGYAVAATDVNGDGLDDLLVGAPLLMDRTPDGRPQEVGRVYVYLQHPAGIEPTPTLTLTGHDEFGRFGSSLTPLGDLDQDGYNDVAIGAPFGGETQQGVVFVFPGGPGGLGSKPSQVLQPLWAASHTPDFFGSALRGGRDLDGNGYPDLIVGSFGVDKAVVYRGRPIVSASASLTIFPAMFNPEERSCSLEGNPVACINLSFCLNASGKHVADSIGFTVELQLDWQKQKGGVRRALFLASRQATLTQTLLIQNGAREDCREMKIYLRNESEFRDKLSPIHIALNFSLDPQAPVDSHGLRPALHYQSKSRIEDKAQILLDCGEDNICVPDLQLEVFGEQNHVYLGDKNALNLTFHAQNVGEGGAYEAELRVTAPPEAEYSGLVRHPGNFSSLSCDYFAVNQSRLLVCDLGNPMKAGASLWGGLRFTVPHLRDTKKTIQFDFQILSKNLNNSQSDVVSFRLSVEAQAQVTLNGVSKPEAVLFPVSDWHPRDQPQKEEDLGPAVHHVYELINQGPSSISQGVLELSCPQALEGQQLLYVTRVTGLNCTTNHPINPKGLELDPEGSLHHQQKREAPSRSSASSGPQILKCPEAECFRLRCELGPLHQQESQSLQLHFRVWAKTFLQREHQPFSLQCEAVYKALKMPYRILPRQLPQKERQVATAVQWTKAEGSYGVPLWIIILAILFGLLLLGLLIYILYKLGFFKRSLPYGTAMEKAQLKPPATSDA
UniProt P08648, sequence (P05556 21-728, chain 2 of 2, further chain): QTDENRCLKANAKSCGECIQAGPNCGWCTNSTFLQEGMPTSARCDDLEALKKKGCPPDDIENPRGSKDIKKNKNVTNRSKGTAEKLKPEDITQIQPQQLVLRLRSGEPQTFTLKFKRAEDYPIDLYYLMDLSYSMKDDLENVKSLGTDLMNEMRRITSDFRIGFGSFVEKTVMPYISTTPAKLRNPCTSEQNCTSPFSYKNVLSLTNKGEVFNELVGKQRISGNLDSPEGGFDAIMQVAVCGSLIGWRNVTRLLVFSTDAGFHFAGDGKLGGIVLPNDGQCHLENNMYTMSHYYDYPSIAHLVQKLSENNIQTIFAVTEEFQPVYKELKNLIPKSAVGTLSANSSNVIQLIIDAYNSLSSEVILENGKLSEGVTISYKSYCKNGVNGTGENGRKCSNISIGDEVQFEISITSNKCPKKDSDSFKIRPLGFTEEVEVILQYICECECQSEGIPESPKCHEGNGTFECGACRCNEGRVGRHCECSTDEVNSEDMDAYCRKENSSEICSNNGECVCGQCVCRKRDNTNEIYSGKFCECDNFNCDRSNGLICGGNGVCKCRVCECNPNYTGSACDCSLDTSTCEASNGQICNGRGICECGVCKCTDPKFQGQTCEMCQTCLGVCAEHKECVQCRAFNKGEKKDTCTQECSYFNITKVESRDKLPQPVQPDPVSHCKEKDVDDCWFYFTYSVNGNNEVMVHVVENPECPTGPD

## native PSG1 (pregnancy-specific glycoprotein 1) purified from the serum of pregnant women (from UniProt P11464 35-419) (natural protein)
  reduction of adhesion of HTR8/SVneo cells to native PSG1 (30 μg/mL coated) by a neutralizing antibody to integrin α5, 21% oxygen: 45%
  reduction of adhesion of HTR8/SVneo cells to native PSG1 (30 μg/mL coated) by a neutralizing antibody to integrin β1, 21% oxygen: 90%
